Drawing on publication PMC12482196, this text covers binding and percent of cells with the GFP signal in the nucleus for 2 substances.

Data set [1] deals with T1, MBP-YlAaf1 (Yarrowia lipolytica), ORF:dd6ddf17.
T1 sequence: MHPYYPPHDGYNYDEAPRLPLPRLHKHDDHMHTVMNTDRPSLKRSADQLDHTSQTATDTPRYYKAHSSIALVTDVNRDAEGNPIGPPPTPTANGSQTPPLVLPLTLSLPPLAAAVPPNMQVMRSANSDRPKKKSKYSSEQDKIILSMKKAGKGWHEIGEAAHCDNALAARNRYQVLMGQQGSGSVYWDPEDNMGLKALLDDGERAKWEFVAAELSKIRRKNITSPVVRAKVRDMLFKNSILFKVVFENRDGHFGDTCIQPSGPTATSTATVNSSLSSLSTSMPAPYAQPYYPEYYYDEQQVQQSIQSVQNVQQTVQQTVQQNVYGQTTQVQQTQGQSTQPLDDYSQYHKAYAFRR
The data set can be described thus: EMSA. The note with it: 10 mM Tris-HCl pH 7.5, 50 mM NaCl, 0.5 mM EDTA, 1 mM MgCl2, 4% glycerol, 0.5 mM DTT; 300 ng probe, 0-0.5 ug protein in 20 uL; 4% native PAGE in 0.5x TBE at …. (In EMSA bound probe runs differently from free probe, usually more slowly.)

Data set [2] has as its target VC-YlAaf2 (Yarrowia lipolytica). Nature of the data set: split reporter (BiFC, NanoBiT); BiFC with the N-terminal and C-terminal regions of Venus in S. cerevisiae YEF473A, cells grown at 30°C for 16 h in liquid SC-Ura-His medium, fluorescence microscopy, nucleus by DAPI.

Regarding “ACCTCCCTTCGTGGTTTATGACGAAACACGCTTAGCTAAAGTTCTAAAGGCTAATATTACGAACTCTGTGAAAAGGCGAAAAACCACAAAAGGGACGTGTGGTGTTGAAAAGGTGAAAAAGAGAAAACGAAAAGTCTGGCCGAAGTCAAT (double strand) [MHY1 promoter 150-bp probe]”, in data set [1], the binding result is “no binding”. On to VN-YlAaf1 (natural protein), for which the percent of cells with the GFP signal in the nucleus in data set [2] is 17 % of cells.
